Key:
[1] = target: T1, phosphorylated opsin (bovine, UniProt P02699 1-348, phosphorylated on the C-terminus by endogenous GRK1 (sites not given); no retinal (apo-protein)); assay: site-directed steady-state fluorescence; 1 uM labelled arrestin with 6 uM Ops-P in ROS membranes, 50 mM HEPES pH 8, low salt, 20 °C; settings: one partner purified
T1 construct: bovine opsin (apo-protein of rhodopsin), endogenous in ROS membranes; in isolated, washed ROS disc membranes, not on whole cells; also called Ops-P; OpsP

[2] = target: T1, phosphorylated opsin; assay: site-directed steady-state fluorescence; 1 uM labelled arrestin with 6 uM receptor in ROS membranes, 50 mM HEPES pH 7, low salt, 20 °C; settings: one partner purified

T1 sequence (P02699 whole entry): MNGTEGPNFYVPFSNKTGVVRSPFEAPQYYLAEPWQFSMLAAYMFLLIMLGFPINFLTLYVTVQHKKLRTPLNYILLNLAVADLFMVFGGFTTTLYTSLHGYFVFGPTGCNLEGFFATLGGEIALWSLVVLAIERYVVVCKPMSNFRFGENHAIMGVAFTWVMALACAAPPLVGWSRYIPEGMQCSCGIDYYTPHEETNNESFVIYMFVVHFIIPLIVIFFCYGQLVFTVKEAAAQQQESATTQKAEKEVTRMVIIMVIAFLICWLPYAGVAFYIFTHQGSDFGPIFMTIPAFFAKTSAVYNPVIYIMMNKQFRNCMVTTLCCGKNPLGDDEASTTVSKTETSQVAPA

fluorescence increase relative to that with Meta II-P [1]	fluorescence increase relative to that with Meta II-P [2]	fluorescence change relative to that with Meta II-P [1]	Binder
~18%	~45%	–	arrestin I72NBD (natural protein, bovine, UniProt P08168 1-404, looked up, NBD fluorophore (IANBD) on the cysteine at site 72, recombinant bovine arrestin-1 mutant; also called arrestin-1 C63A, C128S, C143A, W194F, I72C labelled with IANBD; source: E. coli, purified) MKANKPAPNHVIFKKISRDKSVTIYLGKRDYIDHVERVEPVDGVVLVDPELVKGKRVYVSLTAAFRYGQEDCDVMGLSFRRDLYFSQVQVFPPVGASGATTRLQESLIKKLGANTYPFLLTFPDYLPSSVMLQPAPQDVGKSAGVDFEIKAFATHSTDVEEDKIPKKSSVRLLIRKVQHAPRDMGPQPRAEASFQFFMSDKPLRLAVSLSKEIYYHGEPIPVTVAVTNSTEKTVKKIKVLVEQVTNVVLYSSDYYIKTVAAEEAQEKVPPNSSLTKTLTLVPLLANNRERRGIALDGKIKHEDTNLASSTIIKEGIDKTVMGILVSYQIKVKLTVSGLLGELTSSEVATEVPFRLMHPQPEDPDTAKESFQDENFVFEEFARQNLKDAGEYKEEKTDQEAAMDE
–	–	~38%	arrestin I299B/L173W (natural protein, bovine, UniProt P08168 1-404, looked up, bimane fluorophore (monobromobimane) on the cysteine at site 299, recombinant bovine arrestin-1 mutant; also called arrestin-1 C63A, C128S, C143A, W194F, L173W, I299C labelled with monobromobimane; source: E. coli, purified) MKANKPAPNHVIFKKISRDKSVTIYLGKRDYIDHVERVEPVDGVVLVDPELVKGKRVYVSLTAAFRYGQEDIDVMGLSFRRDLYFSQVQVFPPVGASGATTRLQESLIKKLGANTYPFLLTFPDYLPSSVMLQPAPQDVGKSAGVDFEIKAFATHSTDVEEDKIPKKSSVRLWIRKVQHAPRDMGPQPRAEASFQFFMSDKPLRLAVSLSKEIYYHGEPIPVTVAVTNSTEKTVKKIKVLVEQVTNVVLYSSDYYIKTVAAEEAQEKVPPNSSLTKTLTLVPLLANNRERRGIALDGKCKHEDTNLASSTIIKEGIDKTVMGILVSYQIKVKLTVSGLLGELTSSEVATEVPFRLMHPQPEDPDTAKESFQDENFVFEEFARQNLKDAGEYKEEKTDQEAAMDE

Source: publication PMC4923902 (Scientific Reports, 2016)
